RCY (CFP/YFP emission ratio, FRET) data for three substances are collected here from publication PMC4285798.

Common to all, as to test: FRET or BRET; CFP (donor) and YFP (acceptor) fusions co-expressed from pETDuet-1 in E. coli; late exponential cells washed once with 0.9% NaCl, 150 μl in a 96 well plate, Tecan Infinite M200 Pro; excitation 435 nm, emission 466-610 nm; RCY = ratio of the emission maxima of eCFP (480 nm) and eYFP (525 nm); RCY 1.1–1.3 read as enrichment/interaction, 0.9–1.1 as approximation without interaction, <0.9 as no FRET
(In BRET a luciferase serves as donor, and the signal depends on an acceptor being close.)

The target of experiment [1] is DivIVA-YFP (C. glutamicum).
Experiment [2] has as its target DivIVAI18F-YFP (C. glutamicum).
Experiment [3] has as its target DivIVAK20R-YFP (C. glutamicum).
Experiment [4] has as its target DivIVAΔM-YFP (C. glutamicum).
Experiment [5] has as its target DivIVAI18D-YFP (C. glutamicum).

Regarding ParB-CFP (natural protein), the RCY (CFP/YFP emission ratio, FRET) in experiment [1] was found to be 1.16.
Regarding RodA-CFP (natural protein), the RCY (CFP/YFP emission ratio, FRET) in experiment [2] was 1.27; in experiment [3], 1.11; in experiment [4] it was 1.19; in experiment [5], 1.14; in experiment [1], 1.15.
As for RodAE438G-CFP (natural protein), the RCY (CFP/YFP emission ratio, FRET) in experiment [1] came to 1.1.
